The values below come from patent US6096502, “Substrate for detecting UL9 helicase activity” (Lee; Sam S.-K.).

This series addresses UL9 protein (origin-binding protein/helicase) (UniProt P10193 P10193:1-851). As to the kind of experiment: EMSA; binding to Box I with attached ssDNA tails verified by gel mobility shift; substrate number not specified. The note with it: tags: none stated; baculovirus-infected Sf21 nuclear extract, 83 kDa; chain copies: 2 (homodimer on Box I, stated); label: 5'-32P on 44-mer; forked duplex with 18-nt 3' ssDNA tail and 10-nt 5' ssDNA tail. (In general: A gel shift assay detects complexes by their altered migration in electrophoresis.)

UL9 protein (origin-binding protein/helicase), sequence (P10193 whole entry, one chain of several): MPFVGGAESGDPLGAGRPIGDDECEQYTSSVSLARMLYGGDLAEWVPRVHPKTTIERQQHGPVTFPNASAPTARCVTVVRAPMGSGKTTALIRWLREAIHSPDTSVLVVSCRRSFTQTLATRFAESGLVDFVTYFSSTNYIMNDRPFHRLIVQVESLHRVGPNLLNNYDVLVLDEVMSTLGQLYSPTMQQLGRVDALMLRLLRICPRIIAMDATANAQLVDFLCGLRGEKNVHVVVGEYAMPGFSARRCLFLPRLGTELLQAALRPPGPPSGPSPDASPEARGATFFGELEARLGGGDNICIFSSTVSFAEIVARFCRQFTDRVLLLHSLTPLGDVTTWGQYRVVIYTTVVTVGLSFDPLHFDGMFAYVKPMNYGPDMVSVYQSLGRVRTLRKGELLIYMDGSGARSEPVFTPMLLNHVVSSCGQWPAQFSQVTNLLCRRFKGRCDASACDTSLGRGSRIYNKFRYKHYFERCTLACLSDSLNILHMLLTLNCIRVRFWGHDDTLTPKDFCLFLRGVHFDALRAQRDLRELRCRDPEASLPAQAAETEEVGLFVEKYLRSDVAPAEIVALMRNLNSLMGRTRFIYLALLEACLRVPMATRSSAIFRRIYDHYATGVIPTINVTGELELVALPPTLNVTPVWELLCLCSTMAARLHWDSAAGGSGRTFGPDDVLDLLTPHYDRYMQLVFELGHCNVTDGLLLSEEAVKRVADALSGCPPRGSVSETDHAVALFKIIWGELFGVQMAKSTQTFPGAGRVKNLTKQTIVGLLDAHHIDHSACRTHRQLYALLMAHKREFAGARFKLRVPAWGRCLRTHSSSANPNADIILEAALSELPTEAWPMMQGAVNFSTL

B1: Substrate I (18-nt 3' tail on first strand, 5' tail on second strand) (mixed)
DNA 1: CGCGAAGCGTTCGCACTTCGTCCCGCCTTCCTGCGCCTTCCTGT
DNA 2: CATGCTCGCAGCGGGACGAAGTGCGAACGCTTCGCG
Turning to B1, the binding result is given as “binds”.
